First the molecules themselves.
T1: IdeR (iron-dependent regulator) (Mycobacterium tuberculosis, UniProt P9WMH1 1-230)
T1 sequence: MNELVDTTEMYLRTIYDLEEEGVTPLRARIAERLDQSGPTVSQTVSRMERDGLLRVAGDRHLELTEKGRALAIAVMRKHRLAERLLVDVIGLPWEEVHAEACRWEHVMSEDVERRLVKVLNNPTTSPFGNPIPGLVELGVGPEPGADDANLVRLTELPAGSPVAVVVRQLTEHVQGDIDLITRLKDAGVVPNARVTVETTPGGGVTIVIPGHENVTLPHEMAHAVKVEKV

B1: DIP2161 motif (sidA) (dsDNA)
DNA 1: TTAGGGTAGGCTAATCCAA
DNA 2: TTGGATTAGCCTACCCTAA
B2: DIP0699 motif (secA) (dsDNA)
DNA 1: TTGTGTTAGCCTAGGCTAA
DNA 2: TTAGCCTAGGCTAACACAA
B3: DIP0586 motif (iucA) (dsDNA)
DNA 1: TTAGGGTAGCTTCGCCTAA
DNA 2: TTAGGCGAAGCTACCCTAA
B4: DIP2272 motif (sortase) (dsDNA)
DNA 1: TGTGGGCACACCAACCTAA
DNA 2: TTAGGTTGGTGTGCCCACA
B5: DIP2304 motif (FpG) (dsDNA)
DNA 1: TTGGGGTGGCCTATCCTTA
DNA 2: TAAGGATAGGCCACCCCAA
B6: negative control motif (dsDNA)
DNA 1: TTTTCATGACGTCTTCTAA
DNA 2: TTAGAAGACGTCATGAAAA

The data set deals with T1, IdeR (iron-dependent regulator). Put plainly: EMSA; 200 uM Mn2+; 30 pmol IdeR. The note with it: protein: recombinant; tags: 6xHis (pRSET vector); chain copies: 4; label: 32P end label; blunt. (In general: Mobility shift assays separate free from complexed probe on a gel.)
For the molecule B1, the binding result was “binds”.

For the molecule B2, the binding result is reported as “binds”. B3: the binding result is “binds”.

Consider B4, for which the binding result is recorded as “binds”. As to B5, the binding result is on record as “binds”. In the case of B6, the binding result was “no binding”.

The record behind these values is article PMC524172, “Yellaboina Sailu 1 sailu@cdfd.org.in”.
